Assay: soluble on expression in E. coli; label from the status in PepcDB or PDB records

ADPDVLTEVPAALKRLAKYVIRGFYGIEHALALDILIRNSCVKEEDMLELLKFDRKQLRSVLNNLKGDKFIKCRMRVETAADGKTTRHNYYFINYRTLVNVVKYKLDHMRRRIETDERDSTNRASFKCPVCSSTFTDLEANQLFDPMTGTFRCTFCHTEVEEDESAMPKKDARTLLARFNEQIEPIYALLRETEDVNLAYEILEPEPTEIPALKQSKDHAATTAGAASLAGGHHREAWATKGPSYEDLYTQNVVINMDDQEDLHRASLEGKSAKERPIWLRESTVQGAYGSEDMKEGGIDMDAFQEREEGHAGPDDNEEVMRALLIHEKKTSSAMAGSVGAAAPVTAANGDDSESETSESDDDSPPRPAAVAVHKREEDEEEDDEFEEVADDPIVMVAGRPFSYSEVSQRPELVAQMTPEEKEAYIAMGQRMFEDLFE
soluble on expression in E. coli: not soluble

MGSDKIHHHHHHMSELSQLSPQPLWDIFAKICSIPHPSYHEEALAAHILEWAKEKGIYAERDQVGNILLRKAATAGMENRKPVVLQAHLDMVPQKNNDTVHDFTTDPIQPYVDGEWLKARGTTLGADNGIGMASALAVLADPSVEHGPLEVLLTMTEEAGMDGAFGLQPNWLQGEILINTDSEEEGEIYMGCAGGIDFITRLPLVREVPPAGYQTLKLTIKGLKGGHSGGDIHLGLGNANKLLARFLFEQAEALDIRILDLNGGTLRNAIPREAFATLSLPAANVEQLKTLSQDYLAVLKNELSAVEKNLTVLVEANDSNEHPLTQDSRDRLLGLLNATPNGVIRMSDDVKGVVETSLNLGVVTMEDDHAEIICLIRSLIDSGKDAVVGTLTALGQLAGAKTSPKGGYPGWQPDAHSPVMALVRETYQKQFNKTPNIMVIHAGLECGLFKKPYPDMDMVSIGPTITGPHSPDEQVHIGSVDLYWKLLTELLKAIPPRA
soluble on expression in E. coli: not soluble

MQTFFIAPTDFGVGLTSISLGLVRTLERAGLKVGFFKPIAQPHPGDLGPERSTELMARTHGLKPPKPLGLAHVERMLGDGQLDELLEEIINLYQQAAVGKDVLVVEGMVPTRSASYAARVNLHLAKSLDAEVILVSAPENEVLTELSGRVELQAQLFGGPKDPKVLGVILNKVRTEESMEVFAARLKEHSPLLRNGDFRLLGCIPYRAELNAPRTRDVAELLGAQ
soluble on expression in E. coli: not soluble

MTVSEIRVRKINPRAKIPKRQSEGAAGYDIHSVESGRIPPNGRKSVRTGLAWDVPQSVVGLVFGRSGLALRNWIEVVETCVHPGEDKELVITLVNNGREVFEYEESSRIAQLVFVPVLSCEIDLVESLDLTERGCLGFGSTGMK
soluble on expression in E. coli: not soluble

MIEYTSGDILRCEADALVNTVNCVGVMGRGIALQFKNMYPANFKAYEAACKREEVQPGRMFVFETKQLTPPRLIINFPTKRHWRGKSRIEDIEAGLVDLVNVIRDKNIRSIAIPPLGAGLGGLDWKEVRPRIEHALGELEGVQVIVYEPNGAPASDKMAHVREVPKMTSGRAALVELMQRYLSGLLDPFVTLLEVHKLMYFMQEAGEPLRLDYIKHHYGPYAKNLRHVLNAIEGHLIAGYADGGDAPDKPLSLVPGAVAEAKSFLDQHEISRARFERVTRLVEGFESPYGLELLATVHWVIHREGATQSDSVKRQIYQWNDRKRQFTQRQLVIAEERLRSQGWLSPETTFTYMAGDPLEHHHHHH
soluble on expression in E. coli: not soluble

MKYGYFDNDNREYVITRPDVPAPWTNYLGTEKFCTVISHNAGGYSFYNSPEYNRVTKFRPNATFDRPGHYVYLRDDDSGDYWSISWQPVAKSLDEAQYQIRHGLSYSKFQCDYNGIHARKTLFVPKGEDAEIWDVVIKNTSDQVRTISAFSFVEFSFSHIQSDNQNHQMSLYSAGTAYRPGLIEYDLYYNTDDFEGFYYLASTFDPDSYDGQRDRFLGLYRDEANPLAVEQGRCSNSAQTCYNHCGSLHKQFTLQPGEEIRFAYILGIGKGNGERLREHYQDVANIDAAFAAIKAHWDERCAKFQVKSPNQGLDTMINAWTLYQAETCVVWSRFASFIEVGGRTGLGYRDTAQDAISVPHANPEMTRKRIVDLLRGQVKAGYGLHLFDPDWFDPEKEDVAPSKSPTVVPTPSDEDKIHGIKDTCSDDHLWLIPTICKYVMETGETSFFDQMIPYADGGEASVYEHMKAALDFSAEYVGQTGICKGLRADWNDCLNLGGGESSMVSFLHFWALQEFIDLAKFLGKDQDVNTYTEMAANVREACETHLWDDEGGWYIRGLTKNGDKIGTAQQQEGRVHLESNTLAVLSGLASQERGEQAMDAVDEHLFSPYGLHLNAPSFSTPNDDIGFVTRVYQGVKENGAIFSHPNPWAWVAETKLGRGDRAMKFYDALNPYNQNDIIEKRIAEPYSYVQFIMGRDHQDHGRANHPWLTGTSGWAYFAVTNYILGVQSGFTGLSVDPCIPSDWPGFEVTRQWRGATYHIQVENPDHVSKGVKSITLNGAPIQGRIPPQAQGSDNQVVVVLGHHHHHH
soluble on expression in E. coli: soluble

GSKEKLKEIKLLVCNIDGCLTNGHIYVSGDQKEIISYDVKDAIGISLLKKSGIEVRLISERACSKQTLSALKLDCKTEVSVSDKLATVDEWRKEMGLCWKEVAYLGNEVSDEECLKRVGLSAVPADACSGAQKAVGYICKCSGGRGAIREFAEHIFLLIEKVNNSCQK
soluble on expression in E. coli: soluble

EIRVFETAPEGLKILKDSEVVINTTTKEVAKNNQFSVSDASGTYNMVNDVKVG
soluble on expression in E. coli: soluble

MGSDKIHHHHHHLGESGKNFDHRRGWVESRLFELEAVFAIDVAAFAVMSNHLHVVLRIDIETANCWTDREVLEQWHKLFNGDEITQKFVKGEVVETHEVLRLKHSIATYRSRLCDISWFMRCLNEPIARQANQEDSCTGRFWEGRFKSQALLDEAAVLACMAYVDLNPIRAKMASTPEQSDHTSIQLRIQAALRGEQPISLLPFIGNERKNQPKGIAFSLQDYLELVDDTGRIIRNDKHGAISTNSAKLLTRLNIFQENWLKLTTEFGKLFHGPVGTLQELTSYCEHLEKRRRHFASCCQHLMAS
soluble on expression in E. coli: not soluble

MADERRCGVCRPLGGPRQPWPAGLLHCSSRAIFASLCMPRIVFAPAIQRHVAMPALDVGAATVAAALQAAFAREPRLRGYLLDDQGSLRRHVALFVDGVQVRDRRGLGDPLQDDSEIYVVQALSGGLEHHHHHH
soluble on expression in E. coli: not soluble

MAILIPASFGRLTITSRAQVRVRVSASANQRTIRRDSVDWVKETSSFFEEDKRPIMLFDGVCNLCNGGVKFVRDHDRNRSIRFEALQSEAGKKLLLRSGRAPDDISSVVLVENDRSYIKSEAVLKIMKYIDLPFPQLAFFLQFAPLFVRDFLYENVANNRYAMFGRSDSCEL
soluble on expression in E. coli: soluble

MYSDHTQTEAFRGELHGVYGLLFTDGGAPSSAQTSTDFIDASLGVNGYLAADGRGTLAGRVSGVLAGQPAVVGLRNAQAQYWATATGSGDYQINGVRPGRYRMTLYQHELEVAQRDVEVFAGATAQAALQAVSLPGAVKWLEHHHHHH
soluble on expression in E. coli: not soluble

MGSDKIHHHHHHMTTYSPSQENYRELAHLLARFTSLTQIKTIFYDFTGILLKDDFVYINHSAIEDNLAQLTFSDYAVFPVSRNIQMWGAILCESVNVSKKRLFLSRSYLENLMTQIFDEDTLGKVSVWEPLTSDQVGQINNLHALFHPTGDTDPLQAVLAPNAVIAGHTIDNDEAFRSISLAIDYIQKNIQRPISLNEVAQRAYLSPSYLSRLFKKYLHVNFIEYVNNQKIALAQEKLSLTLTPINQISNQIGFTQTSYFTKIFKKKTGITPSEFRQRNHTIQKIYTIPRELNWDTNDSVIDVTKNYFKSHHITYHTDSEEGATYVNSIGELNDAKGNRGWIYTVDGQQPTQSADEIATHDKSVIQWVYTDYSN
soluble on expression in E. coli: not soluble

MNDKTTRGRASKVDLLPPNIKSTLTMMLRDKQYSQAEILEEINNIIADSGLDESMQLSKTGLNRFASKMERFGKKIREAREVAEVWTKQLVEAPQSDIGKLLMEAVKTMAFDLTLNADEAVANDPKFLNQLALIANRIEQAQSISEERERKVRKEVAQQAADTAEKVISQAGLSADTVAQIKQQILGIA
soluble on expression in E. coli: not soluble

MSLAPLVAMVGGGQLARMTHQAAIALGQNLRVLVTSADDPAAQVTPNVVIGSHTDLAALRRVAAGADVLTFDHEHVPNELLEKLVADGVNVAPSPQALVHAQDKLVMRQRLAAAGVAVPRYAGIKDPDEIDVFAARVDAPIVVKAVRGGYDGRGVRMARDVADARDFARECLADGVAVLVEERVDLRRELSALVARSPFGQGAAWPVVQTVQRDGTCVLVIAPAPALPDDLATAAQRLALQLADELGVVGVLAVELFETTDGALLVNELAMRPHNSGHWTIDGARTSQFEQHLRAVLDYPLGDSDAVVPVTVMANVLGAAQPPAMSVDERLHHLFARMPDARVHLYGKAERPGRKVGHINFLGSDVAQLCERAELAAHWLSHGRWTDGWDPHRASDDAVGVPPACGGRSDEEERREGHHHHHH
soluble on expression in E. coli: soluble

MSLFCLPLEMRNHWHFFSLFTNLPRKSKWHRASEFFFPLLMSEIEDFR
soluble on expression in E. coli: soluble

MANCENNPWKKNAWGKNEETAEEPIVSFADVLSEEFIEDLSVQEKLEEERYMKQLDQMFGDTSVSDDQLPINTEGMTDEEVALALQRHFDREADVARAVGSSSSVHFTPDRYHPKTMQETDSENEDDDALRQAATDMLYAKLDEENATNSRLRPEGPSTSRTKHDTGVSGRRNADKTFNDRNTLPTGDMVGDKLNNKVFNKLMAFGKSESKRQMRNKDKEEKATMDTSVDSDTRLLLLKWINQGVFDSVDGIIATGKESAVLHAAQDSATSYAIKVYKTTLSEFKNRSEYVKDDFRFKNPRGVLKIWAEREFMNLSRMAKHGLPCPQPVKVRRNVLVMSFLGDQGLAAPRLKNVEWEFFTDDERRNVYDQVQSIMCRMYKECLLVHADLSEFNLLLTPDNKVHVIDVSQAMDLSHPRSLQFLTRDIQNIITFFTRIGTPNLPTYVQLFNLITDLDMVEDHDLLVQVEQFSEENRSVDLRHDKSRPADMELKKYNEEKKANRGISPAREYN
soluble on expression in E. coli: not soluble

MPRTRVNLQKSEANDRSFTISSLEFCLSQLRKADPNLVKKAIASGDGLTESKNDVSTRLSEAHRYSVQQCLDNSEQLAQLHNQLVHCDNVFERLQATLYSFQDNLGSIGQDMKNLQLQSHHIHQELENRQKVRVELSQFVDDIAVSQTMMKTINDTDANDRGFLEALHELHHKITLILQRGNGDAVAVNDTMPILEGLKLKAVVKVREWLLQKMFQFRKPLSNYQVFQHQLLKCRFFYEFLLHHDLISAKELQDEYIDTISKMFFTYFKAYATRLFKLAMKDVATKEDALGSIDFAKPAGLGAIFSSKQHVVRNKATVFSIGQRHQILSDDFLGALIVPHAVTQNHQSVYLTIELAMARAMSVVLKSCEEQIALSWDAISLHLCICLCDKFTEVLAEREVPEVSDYWNTVTSFLWTRLNLVMSQHYESVKSVDLKKLMHSGSLDARPHFIVRRYAELTSAHLMIAKASGKEMGAKMEAVLENSEDSIEQLLTRMSAMQQTQKNKHVFLINNYDLILSIIDNEESKHTKIYAIVHELEQKSIDDFVEEMLEPHIGYMIKFVNECESLIVQGHTQLLVRYNDKVGTVVANFNAKWRPAVDSINSECIQLFTNFSLGTTILQTIFTKYVQYINRFTKILSHDVFAKNPVCSQLVNVHQVMLEIKRFKPAY
soluble on expression in E. coli: not soluble

AVELAEEVTNLKQVRTMLEAIIQSSDEAISVVDENGIGLLINKAYTKMTGLSEKEVIGKPANTDISEGESMHLKVLETRRPVRGVRMKVGPNEKEVIVNVAPVIVDGILKGSVGVIHDVS
soluble on expression in E. coli: not soluble

MFSSSKLVNAVAQRLLDTIEQGRWVAGQMLPGQRELAEQMEISRPSLREAIMVLETLGVVRSLPGKGVMVLERSEPLREVAAPGEATMEDVLQLRYALEPFIVGIVAQSAGAAEISELRLLLLDLREAVEDGDPQALVEAYTAFHRRLVKLTSNPIFLSVSEQIGSALERSDNLVRRQPEYAEEILQEHDAILRAIRQHDSERASQAMRQHILNEGARLNIDLRLPQV
soluble on expression in E. coli: not soluble

From the DeepSol protein solubility set
